Reference: patent US12263245B2, “Immunomodulating treatments of body cavities” (UROGEN PHARMA LTD., priority 2023, dated 2025)

What was measured:
CD4+ICOShi T cells = conditions: patients treated systemically with two doses, cited from earlier work
[1] = parameters: species or system human; conditions: in vivo
[2] = Aggregation stability of AGEN1884 drug product; assay type: physicochemical
Text: AGEN1884 is very stable to aggregation.

Substance	Expression of CD4+ICOShi T cells (CD4+ICOShi T cells; blood samples)	Increase in levels of IFN-γ compared to untreated patients (CD4+ICOShi T cells)	Sustained concentration of zalifrelimab detected in urine overtime [1]	Increase in aggregate ([2]; all samples at all ambient temperatures analyzed (even elevated) through the nine-month time point)	Zalifrelimab aggregates after 24 hours ([2]; stored at about 2° C.-8° C. for at least 24 hours)
ipilimumab: an anti-CTLA-4 antibody	increased expression	approximately five-fold			
zalifrelimab: recombinant, fully human immunoglobulin G1 monoclonal antibody that neutralizes the inhibitory effects of CTLA-4			below the level of quantitation	no increase in aggregate was detected	substantially free from zalifrelimab aggregates
